Source: article PMC7053995, “New approach for membrane protein reconstitution into peptidiscs and basis for their adaptability to different proteins” (eLife, 2020)

What was measured:
[1] = biological target: Rhodobacter sphaeroides dimeric RC–LH1–PufX complex (521 kDa) (Rhodobacter sphaeroides) (UniProt P0C0Y7); test: negative-stain electron microscopy; SEC peak fractions of purified RC complexes in peptidiscs, 0.7% uranyl formate, 100 class averages by K-means classification
[2] = biological target: the molecule itself; test: cryo-EM structure; single-particle cryo-EM of His-tagged membrane protein reconstituted on Ni beads into peptidiscs and purified by SEC; vitrified; Titan Krios 300 kV, K2 Summit; RELION-3 with C2 (MsbA) or C7 (MscS) symmetry imposed, also processed without symmetry

Row | Molecule | stoichiometry N [1] | stoichiometry N [2]
1 | Rhodobacter sphaeroides dimeric RC–LH1–PufX complex (521 kDa) (from UniProt P0C0Y7 1-260; P13402 1-82) | 2 | –
2 | Escherichia coli mechanosensitive channel MscS, His-tagged (natural protein, UniProt P0C0S1 1-286, looked up, full-length E. coli MscS cloned into pET-28b(+); Homo-heptamer; source: E. coli BL21 (DE3), purified (Ni-NTA, SEC)) MEDLNVVDSINGAGSWLVANQALLLSYAVNIVAALAIIIVGLIIARMISNAVNRLMISRKIDATVADFLSALVRYGIIAFTLIAALGRVGVQTASVIAVLGAAGLAVGLALQGSLSNLAAGVLLVMFRPFRAGEYVDLGGVAGTVLSVQIFSTTMRTADGKIIVIPNGKIIAGNIINFSREPVRRNEFIIGVAYDSDIDQVKQILTNIIQSEDRILKDREMTVRLNELGASSINFVVRVWSNSGDLQNVYWDVLERIKREFDAAGISFPYPQMDVNFKRVKEDKAA | – | 7
3 | Escherichia coli MsbA (ABC transporter, lipid transporter), His-tagged (natural protein, MsbA, ABC transporter of Escherichia coli; Nucleotide-free; also called His6-MsbA; source: E. coli C43, purified (DDM, Ni-NTA, SEC)) MHNDKDLSTWQTFRRLWPTIAPFKAGLIVAGVALILNAASDTFMLSLLKPLLDDGFGKTDRSVLVWMPLVVIGLMILRGITSYVSSYCISWVSGKVVMTMRRRLFGHMMGMPVSFFDKQSTGTLLSRITYDSEQVASSSSGALITVVREGASIIGLFIMMFYYSWQLSIILIVLAPIVSIAIRVVSKRFRNISKNMQNTMGQVTTSAEQMLKGHKEVLIFGGQEVETKRFDKVSNRMRLQGMKMVSASSISDPIIQLIASLALAFVLYAASFPSVMDSLTAGTITVVFSSMIALMRPLKSLTNVNAQFQRGMAACQTLFTILDSEQEKDEGKRVIERATGDVEFRNVTFTYPGRDVPALRNINLKIPAGKTVALVGRSGSGKSTIASLITRFYDIDEGEILMDGHDLREYTLASLRNQVALVSQNVHLFNDTVANNIAYARTEQYSREQIEEAARMAYAMDFINKMDNGLDTVIGENGVLLSGGQRQRIAIARALLRDSPILILDEATSALDTESERAIQAALDELQKNRTSLVIAHRLSTIEKADEIVVVEDGVIVERGTHNDLLEHRGVYAQLHKMQFGQ | – | 2
